Experimental data published in US20240400657A1 (MorphoSys, published 2024).

B1: MAB #2 (antibody, human IgG1, lambda)
heavy: EVQLVESGGGLVKPGGSLRLSCAASGFTFSSYAMHWVRQAPGKGLEWVGRIKSVAQGGTTDYAAHVKGRFTISRDDSKNTLYLQMNSLKTEDTAVYYCARVSHSTFDVWGQGTLVTVSSASTKGPSVFPLAPSSKSTSGGTAALGCLVKDYFPEPVTVSWNSGALTSGVHTFPAVLQSSGLYSLSSVVTVPSSSLGTQTYICNVNHKPSNTKVDKRVEPKSCDKTHTCPPCPAPEAEGAPSVFLFPPKPKDTLMISRTPEVTCVVVDVSHEDPEVKFNWYVDGVEVHNAKTKPREEQYNSTYRVVSVLTVLHQDWLNGKEYKCKVSNKALPSSIEKTISKAKGQPREPQVYTLPPSREEMTKNQVSLTCLVKGFYPSDIAVEWESNGQPENNYKTTPPVLDSDGSFFLYSKLTVDKSRWQQGNVFSCSVMHEALHNHYTQKSLSLSPGK
light: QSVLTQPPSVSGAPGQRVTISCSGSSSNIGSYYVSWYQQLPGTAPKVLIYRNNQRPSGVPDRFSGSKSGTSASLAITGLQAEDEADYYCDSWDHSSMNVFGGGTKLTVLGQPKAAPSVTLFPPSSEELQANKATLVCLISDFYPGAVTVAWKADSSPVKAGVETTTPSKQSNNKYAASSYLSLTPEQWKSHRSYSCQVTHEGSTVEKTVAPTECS
notes: lambda 1 light chain
B2: MAB #1 (antibody, human IgG1, lambda)
heavy: EVQLVESGGGLVKPGGSLRLSCAASGFTFSSYAMHWVRQAPGKGLEWVGRIKSKAQGGTTDYAAHVKGRFTISRDDSKNTLYLQMNSLKTEDTAVYYCARVSFSTFDVWGQGTLVTVSSASTKGPSVFPLAPSSKSTSGGTAALGCLVKDYFPEPVTVSWNSGALTSGVHTFPAVLQSSGLYSLSSVVTVPSSSLGTQTYICNVNHKPSNTKVDKRVEPKSCDKTHTCPPCPAPEAEGAPSVFLFPPKPKDTLMISRTPEVTCVVVDVSHEDPEVKFNWYVDGVEVHNAKTKPREEQYNSTYRVVSVLTVLHQDWLNGKEYKCKVSNKALPSSIEKTISKAKGQPREPQVYTLPPSREEMTKNQVSLTCLVKGFYPSDIAVEWESNGQPENNYKTTPPVLDSDGSFFLYSKLTVDKSRWQQGNVFSCSVMHEALHNHYTQKSLSLSPGK
light: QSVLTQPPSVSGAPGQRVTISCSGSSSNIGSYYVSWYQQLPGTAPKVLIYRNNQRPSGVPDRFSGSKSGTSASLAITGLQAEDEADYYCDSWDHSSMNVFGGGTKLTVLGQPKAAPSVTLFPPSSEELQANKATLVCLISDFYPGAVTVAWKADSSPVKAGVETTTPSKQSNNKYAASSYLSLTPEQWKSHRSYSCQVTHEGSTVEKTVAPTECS
notes: lambda 1 light chain, VH3-15 framework

Assays:
[1] = target: Amyloglycosidase; experiment: Protein Panel Profiling (3P), MSD ECL, coated antigen, IgG 100 nM
Experimental: (§1) 32 different proteins and controls were coated on two 384-well MSD standard plates at a concentration of 1.0 μg/mL at 4° C. over night. The coating solution was discarded and plates were blocked with 50 μL 3% (w/v) BSA in PBS for one hour at RT on a microtiter plate shaker (˜500 rpm) followed by three washing steps with 50 μL washing buffer (PBS with 0.05% (v/v) Tween 20). IgG samples were diluted to 100 nM and 10 nM in assay buffer (PBS with 0.5% (w/v) BSA, 0.05% (v/v) Tween 20). As controls, isotype control antibody MOR03207 (IgG1f_AEASS) and assay buffer were used. Samples and controls were added at 30 μL/well and incubated for three hours at RT on a microtiter plate shaker. The plates were washed three times and 30 μL detection antibody (ECL-labeled anti-human Fab) were added per well and incubated for one hour on a microtiter plate shaker (˜500 rpm). After washing the MSD plate and adding 35 μL/well MSD Read Buffer T with surfactant, electro-chemiluminescence signals were detected using a SECTOR® Imager S600 instrument (Meso Scale Diagnostics).
(§2) For evaluation, binding signals of the antibody sample to a certain protein were divided by the respective binding signals of the reference antibody MOR03207 resulting in a binding ratio (BR). The cumulative binding ratio (CBR) of all proteins except the controls (25 in total) was then calculated: CBR up to 150 indicates an IgG without detectable unspecific binding. Values above 150 indicates an IgG with increased unspecific binding compared to the reference antibody MOR03207.

[2] = target: T1, human C5aR_NT-bio peptide (human, biotin tag (position not given)); experiment: as above
T1 construct: Chemically synthesized linear peptide (Genscript); also called human C5aR N-terminal peptide; human C5aR peptide
T1 peptide: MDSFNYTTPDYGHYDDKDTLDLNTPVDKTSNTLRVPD

[3] = target: Trypsin inhibitor; experiment: as above
Experimental: as §1, §2

[4] = target: Myoglobin; experiment: as above
Experimental: as §1, §2

[5] = target: T2, Cell surface rec. 2_Fc (h); experiment: as above
T2 construct: identity not disclosed
Experimental: as §1, §2

[6] = target: Fibrinogen (b) (bovine); experiment: as above
Experimental: as §1, §2

[7] = target: Lectin; experiment: as above
Experimental: as §1, §2

[8] = target: Cytochrome C; experiment: as above
Experimental: as §1, §2

[9] = target: Lysozyme; experiment: as above
Experimental: as §1, §2

[10] = target: Antitrypsin; experiment: as above
Experimental: as §1, §2

[11] = target: Trypsinogen; experiment: as above
Experimental: as §1, §2

[12] = target: Ovalbumin; experiment: as above
Experimental: as §1, §2

[13] = target: T3, anti-human Fc; experiment: as above
T3 construct: control of the 3P panel; it captures human IgG as such, so a ratio of 1 means a signal equal to that of MOR03207
Experimental: as §1, §2

[14] = target: T4, Human FcγRIIB (1-202)-HIS6 (human, UniProt P31994 43-217); experiment: BLI (Octet), IgG captured on Protein A sensors, FcγR titrated
T4 construct: Extracellular region with C-terminal 6xHis tag; UniProt P31994 printed
T4 sequence: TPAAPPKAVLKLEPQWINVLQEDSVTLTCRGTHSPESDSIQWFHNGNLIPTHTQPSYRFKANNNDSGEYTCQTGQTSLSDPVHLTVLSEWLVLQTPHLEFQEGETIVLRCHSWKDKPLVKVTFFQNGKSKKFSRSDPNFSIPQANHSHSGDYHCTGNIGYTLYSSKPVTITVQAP
Experimental: (§3) 2.0 nm of IgGs diluted in Octet assay buffer (PBS, 0.05% (v/v) Tween-20, 0.1% (w/v) BSA) were captured on Protein A sensors (FortéBIO, Pall Life Sciences). Kinetic measurements were performed using 7 concentrations of Fc gamma receptors (2n serial dilution) in assay buffer. […] All sensorgrams were fitted using Data Analysis Software 10.0, (FortéBIO, Pall Life Sciences) to determine kₒₙ and koff rate constants, which were used to calculate KD. The raw data was fitted with a 1:1 binding model, with parameter Rₘₐₓ set to local.

[15] = target: T5, Human FcγRIIIa (1-193)-(158V)-HIS6 (human, UniProt P08637 17-193); experiment: as above
T5 construct: Extracellular region with C-terminal 6xHis tag; UniProt P08637 printed
Experimental: as §3

[16] = target: T6, Human FcγRI (1-279)_HIS6 (human, UniProt P12314 16-280); experiment: as above
T6 construct: Extracellular region with C-terminal 6xHis tag; UniProt P12314 printed
Experimental: as §3

[17] = target: T7, Human FcγRIIa (1-209)-(131R)-HIS6 (human, UniProt P12318 34-209); experiment: as above
T7 construct: Extracellular region with C-terminal 6xHis tag; UniProt P12318 printed
T7 chain: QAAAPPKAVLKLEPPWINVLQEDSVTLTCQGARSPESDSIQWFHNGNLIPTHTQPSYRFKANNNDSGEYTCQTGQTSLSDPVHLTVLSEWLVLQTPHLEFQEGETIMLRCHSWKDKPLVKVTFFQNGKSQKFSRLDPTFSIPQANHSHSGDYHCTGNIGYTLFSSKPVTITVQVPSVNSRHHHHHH
Experimental: as §3

[18] = target: T8, Human FcγRIIa (1-209)-(131H)-HIS6 (human, UniProt P12318 34-209); experiment: as above
T8 construct: Extracellular region with C-terminal 6xHis tag; UniProt P12318 printed
T8 sequence: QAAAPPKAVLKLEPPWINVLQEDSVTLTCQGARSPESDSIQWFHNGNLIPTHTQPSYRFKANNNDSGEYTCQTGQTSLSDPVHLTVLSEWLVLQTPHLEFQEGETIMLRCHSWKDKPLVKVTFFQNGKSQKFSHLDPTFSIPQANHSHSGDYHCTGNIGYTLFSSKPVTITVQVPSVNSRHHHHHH
Experimental: as §3

[19] = target: T9, Human FcγRIIIa (1-193)-(158F)-HIS6 (human, UniProt P08637 17-193); experiment: as above
T9 construct: Extracellular region with C-terminal 6xHis tag; UniProt P08637 printed
Experimental: as §3

[20] = target: T10, full-length human C3aR expressed on CHO Flp-In cells (human, UniProt Q16581 1-482); experiment: FACS, CHO Flp-In cells expressing human C3aR, single IgG concentration
T10 construct: also called C3a anaphylatoxin chemotactic receptor
T10 sequence: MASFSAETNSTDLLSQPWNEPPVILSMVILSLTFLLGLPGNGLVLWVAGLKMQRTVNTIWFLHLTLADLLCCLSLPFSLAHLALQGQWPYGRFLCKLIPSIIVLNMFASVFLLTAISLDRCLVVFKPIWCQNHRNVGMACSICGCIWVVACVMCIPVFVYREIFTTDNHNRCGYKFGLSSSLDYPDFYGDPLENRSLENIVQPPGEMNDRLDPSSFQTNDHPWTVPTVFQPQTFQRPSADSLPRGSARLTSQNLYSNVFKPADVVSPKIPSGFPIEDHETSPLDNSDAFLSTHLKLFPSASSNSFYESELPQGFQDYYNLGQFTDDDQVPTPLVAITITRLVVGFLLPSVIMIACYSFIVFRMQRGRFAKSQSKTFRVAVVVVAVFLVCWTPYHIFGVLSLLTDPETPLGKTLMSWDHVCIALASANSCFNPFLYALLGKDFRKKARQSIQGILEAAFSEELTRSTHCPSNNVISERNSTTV

Ovalbumin, sequence (P01012 2-386): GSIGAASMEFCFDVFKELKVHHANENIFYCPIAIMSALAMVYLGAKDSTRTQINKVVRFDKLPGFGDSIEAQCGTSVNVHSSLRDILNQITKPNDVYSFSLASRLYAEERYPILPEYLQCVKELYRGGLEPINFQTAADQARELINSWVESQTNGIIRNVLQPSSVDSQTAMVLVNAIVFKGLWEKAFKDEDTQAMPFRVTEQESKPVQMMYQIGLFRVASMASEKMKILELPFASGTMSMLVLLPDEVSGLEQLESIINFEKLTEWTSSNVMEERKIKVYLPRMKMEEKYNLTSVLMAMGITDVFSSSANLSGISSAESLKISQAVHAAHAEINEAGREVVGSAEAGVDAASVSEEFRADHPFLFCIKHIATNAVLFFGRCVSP
T5 sequence (P08637 other isoform, or with tags, fused parts or gaps): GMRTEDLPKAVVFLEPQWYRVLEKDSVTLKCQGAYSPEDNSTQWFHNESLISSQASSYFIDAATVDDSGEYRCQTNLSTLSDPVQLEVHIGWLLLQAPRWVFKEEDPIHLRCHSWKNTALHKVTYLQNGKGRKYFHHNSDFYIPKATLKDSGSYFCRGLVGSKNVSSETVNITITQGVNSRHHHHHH
Lysozyme, sequence (P00698 19-147): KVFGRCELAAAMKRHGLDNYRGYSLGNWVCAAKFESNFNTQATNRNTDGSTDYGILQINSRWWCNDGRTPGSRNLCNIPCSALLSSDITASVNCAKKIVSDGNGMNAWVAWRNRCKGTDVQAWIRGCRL
T6 sequence (P12314 other isoform, or with tags, fused parts or gaps): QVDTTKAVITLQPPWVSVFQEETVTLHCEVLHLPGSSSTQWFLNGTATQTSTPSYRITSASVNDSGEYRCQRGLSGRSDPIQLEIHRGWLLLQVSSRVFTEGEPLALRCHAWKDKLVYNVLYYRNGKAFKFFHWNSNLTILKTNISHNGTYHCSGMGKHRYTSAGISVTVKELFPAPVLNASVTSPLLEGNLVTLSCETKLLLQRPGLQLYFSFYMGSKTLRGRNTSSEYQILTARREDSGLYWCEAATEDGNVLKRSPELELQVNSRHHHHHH
T9 sequence (P08637 other isoform, or with tags, fused parts or gaps): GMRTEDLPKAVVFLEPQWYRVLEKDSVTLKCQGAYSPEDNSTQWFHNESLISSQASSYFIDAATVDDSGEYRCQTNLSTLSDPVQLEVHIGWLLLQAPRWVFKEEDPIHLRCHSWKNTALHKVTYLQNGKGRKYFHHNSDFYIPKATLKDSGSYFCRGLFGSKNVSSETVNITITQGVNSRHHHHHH
Fibrinogen (b) (bovine), sequence (P02672 20-615, chain 1 of 3): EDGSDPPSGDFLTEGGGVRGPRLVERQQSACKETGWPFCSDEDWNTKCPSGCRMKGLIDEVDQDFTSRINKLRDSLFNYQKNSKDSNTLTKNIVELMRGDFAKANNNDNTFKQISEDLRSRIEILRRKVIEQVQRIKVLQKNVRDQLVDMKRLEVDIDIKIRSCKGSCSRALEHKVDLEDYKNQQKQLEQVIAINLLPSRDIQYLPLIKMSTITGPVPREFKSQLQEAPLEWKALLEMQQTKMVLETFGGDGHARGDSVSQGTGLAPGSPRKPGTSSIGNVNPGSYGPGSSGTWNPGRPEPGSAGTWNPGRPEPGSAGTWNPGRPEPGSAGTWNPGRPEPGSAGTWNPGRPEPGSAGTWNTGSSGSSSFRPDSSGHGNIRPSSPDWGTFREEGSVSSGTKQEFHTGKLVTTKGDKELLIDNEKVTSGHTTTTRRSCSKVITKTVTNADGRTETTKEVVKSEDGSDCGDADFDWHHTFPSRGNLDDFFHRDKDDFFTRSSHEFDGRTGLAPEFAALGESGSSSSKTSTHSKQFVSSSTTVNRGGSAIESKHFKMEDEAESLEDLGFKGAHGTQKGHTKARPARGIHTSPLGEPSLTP
Fibrinogen (b) (bovine), sequence (P02676 whole entry, chain 2 of 3, further chain): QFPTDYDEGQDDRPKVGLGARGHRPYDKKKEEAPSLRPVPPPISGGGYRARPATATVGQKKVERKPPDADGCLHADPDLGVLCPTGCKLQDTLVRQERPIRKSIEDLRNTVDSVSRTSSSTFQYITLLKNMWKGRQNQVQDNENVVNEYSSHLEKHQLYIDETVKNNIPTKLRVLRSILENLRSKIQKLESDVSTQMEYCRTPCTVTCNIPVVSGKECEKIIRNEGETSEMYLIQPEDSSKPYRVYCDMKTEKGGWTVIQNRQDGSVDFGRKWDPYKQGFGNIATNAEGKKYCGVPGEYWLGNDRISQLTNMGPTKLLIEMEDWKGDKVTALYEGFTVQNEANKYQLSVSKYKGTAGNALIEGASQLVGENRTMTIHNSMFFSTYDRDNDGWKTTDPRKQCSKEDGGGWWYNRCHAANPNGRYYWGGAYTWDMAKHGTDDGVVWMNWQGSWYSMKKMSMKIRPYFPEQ
Fibrinogen (b) (bovine), sequence (P12799 25-444, chain 3 of 3, further chain): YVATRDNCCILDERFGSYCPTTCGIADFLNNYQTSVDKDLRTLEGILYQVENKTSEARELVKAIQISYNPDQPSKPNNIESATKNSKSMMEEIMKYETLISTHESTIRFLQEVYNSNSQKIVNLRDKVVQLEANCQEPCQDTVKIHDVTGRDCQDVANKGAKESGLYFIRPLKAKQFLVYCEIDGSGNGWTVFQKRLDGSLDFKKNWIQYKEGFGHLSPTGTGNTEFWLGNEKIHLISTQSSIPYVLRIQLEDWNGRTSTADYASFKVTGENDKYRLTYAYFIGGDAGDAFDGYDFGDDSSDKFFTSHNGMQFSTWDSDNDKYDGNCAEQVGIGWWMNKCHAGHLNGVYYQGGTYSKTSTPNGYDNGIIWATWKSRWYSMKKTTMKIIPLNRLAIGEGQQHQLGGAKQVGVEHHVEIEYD

| Binder | binding ratio (signal / signal of MOR03207) [1] | binding ratio (signal / signal of MOR03207) [2] | binding ratio (signal / signal of MOR03207) [3] | binding ratio (signal / signal of MOR03207) [4] | binding ratio (signal / signal of MOR03207) [5] | binding ratio (signal / signal of MOR03207) [6] | binding ratio (signal / signal of MOR03207) [7] | binding ratio (signal / signal of MOR03207) [8] | binding ratio (signal / signal of MOR03207) [9] | binding ratio (signal / signal of MOR03207) [10] | binding ratio (signal / signal of MOR03207) [11] | binding ratio (signal / signal of MOR03207) [12] | binding ratio (signal / signal of MOR03207) [13] | binding result [14] | binding result [15] | binding result [16] | binding result [17] | binding result [18] | binding result [19] | binding result [20] |
| --- | --- | --- | --- | --- | --- | --- | --- | --- | --- | --- | --- | --- | --- | --- | --- | --- | --- | --- | --- | --- |
| B1 | 2 | 49 | 7 | 2 | 2 | 2 | 2 | 2 | 2 | 2 | 2 | 4 | 1 | no binding | no binding | no binding | binds | no binding | no binding | no binding (tested: 300 nM) |
| B2 | 3 | 84 | 5 | 2 | 2 | 2 | 2 | 2 | 2 | 2 | 2 | 2 | 1 | no binding | no binding | no binding | binds | no binding | no binding | no binding (tested: 300 nM) |
